The target of this assay is T1, HEWL (lysozyme, derived from egg albumen, FUJIFILM Wako Pure Chemical Corporation) (UniProt P00698 19-147).
T1 construct: Immobilised on a CM5 sensor chip by amine coupling (target 150 RU); Species is only implied by 'derived from egg albumen' and the abbreviation HEWL; also called antigen
Description: SPR (Biacore T200), HEWL amine-coupled to CM5 chip, 1ZVH at 8.6-700 nM as analyte, 1:1 binding model. How it is done: The antigen-binding activity of the 1ZVH (SEQ ID NO: 38) produced by Dpr9ΔsigF was analyzed by intermolecular interaction measurement using Biacore T200 (GE Healthcare). The sensor chip used was Series S Sensor Chip CM5, and the running buffer used was HBS-EP+. HEWL (lysozyme, derived from egg albumen, FUJIFILM Wako Pure Chemical Corporation) was adjusted to 0.7 g/L with 25 mM Na phosphate pH 6.5 buffer to prepare an antigen solution. The antigen solution diluted 100-fold with an acetic acid aqueous solution (pH 4.0, 4.5, 5.0, or 5.5) to 7 μg/mL was used as substrates. As samples, 1ZVH diluted with the running buffer to 8.6 nM, 26 nM, 78 nM, 230 nM, or 700 nM was used. The following items were set or performed on the control software attached to Biacore T200 using the substrates and the samples, and the binding between the HEWL and the 1ZVH was monitored. Immobilisation pH scouting was performed to investigate the optimum pH for ill- mobilization to a sensor chip. The optimum pH condition was judged to be pH 5.5. The target was set to 150 RU with Aim for immobilized level, and lysozyme was immobilized to Flow path 2 by an amine coupling method. In Flow path 1, Blank Immobilization was performed. The binding between a substrate and a sample was monitored in Flow path 2-1. […] The kinetics were analyzed using the resulting sensor gram. […]
(In SPR one partner is held on a chip, and binding of the other changes the refractive index at the surface.)

T1 sequence (P00698 19-147 limits assumed): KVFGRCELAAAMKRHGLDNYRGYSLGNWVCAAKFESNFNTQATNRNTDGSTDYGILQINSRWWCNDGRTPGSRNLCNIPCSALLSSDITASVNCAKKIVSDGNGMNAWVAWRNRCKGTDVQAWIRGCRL

B1: 1ZVH (VHH, SEQ ID NO: 38) produced by Bacillus subtilis Dpr9ΔsigF (VHH)
VHH: QVQLVESGGGLVQPGGSLRLSCAASGFTFSNDAMTWVRQAPGKALEWVSSITLLGGGIPYYSDTVKGRFTISRDNTKNMLYLQMNSLKPEDTAVYYCAKGFKSDYPRGQGTQVTVSS
notes: Secreted by Dpr9ΔsigF and purified on Ni-NTA agarose; also called the VHH (1ZVH); purified VHH
For B1, the binding result was “binds”.

The record behind these values is patent US20230111102A1 (KAO, published 2023).
